Experimental data reported in the nanobody polyreactivity screen of Harvey et al. (2022).

Assay: yeast display, Sf9 membrane polyspecificity reagent, FACS + sequencing; frameworks hold sequencing errors
Summary of the method: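 Nanobodies came from a synthetic yeast display library in Saccharomyces cerevisiae BJ5465, induced with galactose for 36–48 hours and stained for 1 hour at 4 °C with 10% biotinylated, detergent-solubilized Sf9 membrane reagent. Cells were enriched on streptavidin microbeads and then FACS-sorted, with low and high (top ~1%) gates set on anti-HA fluorescence for expression and streptavidin fluorescence for reagent binding. Each polyreactivity label reflects the gate a clone came from. Genes were amplified by colony PCR, sequenced by MiSeq 2 × 250 and filtered by CDR length.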

| Sequence | polyreactivity (PSR sort gate) |
| --- | --- |
| QVQLVESGGGLVQAGGSLRLSCAASGSTFYPYAMGGYRQAPGKERELVAAISSGGSTYYADSVKGRFTISRDNAKNTVYLQMNSLKPADTAVYYCAADFYYAYYWGQGTQVTVSS | low polyreactivity |
| QVQLVESGGGLVQAGGSLRLSCAASGSTFYPYAMGWYRQAPGKERELVAAINLRADSTNYADSVKGRFTISRDNAKNTVYLQMNSLKPEDTAVYYCAARVSYRSGRRPLWAYNSWGQGTQVTVSS | high polyreactivity |
| QVQLVESGGGLVQAGGSLRLSCAASGSTFYPYAMGWYRQAPGKERELVAAINWSGGTTYYADSVKGRFTLSRDNAKNTVYLQMNSLKPEDTAVYYCAAVGYPPGYGYWGQGTQVTVSS | low polyreactivity |
| QVQLVESGGGLVQAGGSLRLSCAASGSTFYPYAMGWYRQAPGKERELVAAISSGGSTSYADSVKGRFTISRENAKNTVYLQMNSLKPEDTAVYYCNASSPVAVPVYDYDYWGQGTQVTVSS | low polyreactivity |
| QVQLVESGGGLVQAGGSLRLSCAASGSTFYPYAMGWYRQAPGKERELVAAITSGGRTYYADSVKGRFTISRDNAKNTVYLQMNSLKPEDTAVYYCAAVYINRLTSKYEYWGQGTQVTVSS | high polyreactivity |
| QVQLVESGGGLVQAGGSLRLSCAASGSTFYPYAMGWYRQAPGNERELVAALDRGGSTSYADSVKGRFTISRDNAKNTVYLQMIRLKPEDTAVYYCAVARGGRRKYEYWGQGTQVTVSS | low polyreactivity |
| QVQLVESGGGLVQAGGSLRLSCAASGSTFYPYDMGLYRQAPGKERELVATITSTGGSTNYADSVKGRFTISRDNAQNTVYLQMNSLKPEDTAVYYCAKDWNDDQHSWDTPFDYWGQGTHVTVSS | low polyreactivity |
| QVQLVESGGGLVQAGGSLRLSCAASGSTFYPYGMGWYRHAPGKERDLVAAISKRGGSTYYADSVKGRFTISRDNAKNTVYLQMNSLKPEDTAVYYCAAYGAGKFWAEHNYWGQGTQVTVSS | high polyreactivity |
| QVQLVESGGGLVQAGGSLRLSCAASGSTFYPYPMGWYRQAPGKERELVATISSSGGTTSYADSVKGRFTISRDNAKNTVYLQMNSLKPEDTAVYYGAARGYGSLHHVLGHHDSWGQGTQVTVSS | low polyreactivity |
| QVQLVESGGGLVQAGGSLRLSCAASGSTFYQYAMGWYRQAPGKERELVAAISKSGGSTYYADSVKGRFTISRDNAKNTVYLQMNSLKPEDTAVYYCATRWIKGRNMDYWGQGTQVTVSS | high polyreactivity |
| QVQLVESGGGLVQAGGSLRLSCAASGSTFYQYAMGWYRQAPGKERELVAAISRSGSTNYADSVKGRFTISRDNAKNTVYLQMNSLKPEDTAVYDCAARLGTRQYKMDYWGQGTQVTVSS | high polyreactivity |
| QVQLVESGGGLVQAGGSLRLSCAASGSTFYQYAMGWYRQAPGKERELVARITYNGGRTYYADSVKGRFTISRDNAKNTVYLQMNSLKPEDTAVYYCAARRWSTGGYGQFDYWGQGTQVTVSS | low polyreactivity |
| QVQLVESGGGLVQAGGSLRLSCAASGSTFYQYVMGWYRQAPGKERELVADITNGGSTYYADSVKGRFTISRDNAKNTVYLQMNSLKPEDTAVYYCAADGGYYWYTYWYGGLYYWGQGTQVTVSS | high polyreactivity |
| QVQLVESGGGLVQAGGSLRLSCAASGSTFYRNAMGWYIQAPGKEREFVAAISYSGGGTYYADSVKGRFTISRDNAKNTVYLQMNSLKPEETAVYYCAADVSGWEYDYWGQVTQVTVSS | low polyreactivity |
| QVQLVESGGGLVQAGGSLRLSCAASGSTFYRNAMGWYRQAPGKERAFVAAISFRGGGTYADSVKGRFTISRDNAKNTVYLQMNSLKPEDTAVYYCAADHLSYPRRYEYWGQGTQVTVSS | low polyreactivity |
| QVQLVESGGGLVQAGGSLRLSCAASGSTFYRNAMGWYRQAPGKEREFVAAISFRGGGTYADSVKGRFTISRDNAKNTVYLQMNSLIPEDTAVYYCAADHLSYRRRYEYWGQGTQVTVSS | low polyreactivity |
| QVQLVESGGGLVQAGGSLRLSCAASGSTFYRNAMGWYRQAPGKERELVAAISGSDGSTYYADSVKGRFTISRDNAKNTVYLQMNSLKPEDTAVYYCNARRWWVIRDYWGQGTQVTVSS | high polyreactivity |
| QVQLVESGGGLVQAGGSLRLSCAASGSTFYRNAMGWYRQAPGKERELVAAISRRSGTTYYADSVKGRFTISRDNAKNTVYLQMNSLKPEDTSVYYCATVRGGYDYWGQGTQVTVSS | high polyreactivity |
| QVQLVESGGGLVQAGGSLRLSCAASGSTFYRNAMGWYRQAPGKERELVAAISSTGGSTYYADSVKGRFTISRDNAKNTVYLQMNSLKPEDTAVYYCARDYSWLTRGSDYDYWGQGTQVTVSS | low polyreactivity |
| QVQLVESGGGLVQAGGSLRLSCAASGSTFYRNAMGWYRQAPGKERELVAAISTSGGSTYYADSVKGRFTISRDNAKNTVYLQMNSLKPEDTAVYYCATDSYYFDVMYGWKEYDYWGQGTQVTVSS | high polyreactivity |
| QVQLVESGGGLVQAGGSLRLSCAASGSTFYRNTMGWYRQAPGKERELVAAIRRSGSSTYYADSVKGRFTISRDIAKNTVYLQMNSLKREDTAVYYCAKEGLSYRYYYWGQGTQVTVSS | high polyreactivity |
| QVQLVESGGGLVQAGGSLRLSCAASGSTFYRYAMGWSRQAPGKERELVAAITWRGGSTYYADSVKGRFTISRDNAKNTLYLQMNSLKPEDTAVYYCAADSYYYRPYHYGYDYWGQGTQVTVSS | high polyreactivity |

| Sequence | polyreactivity (PSR sort gate) |
| --- | --- |
| QVQLVESGGGLVQAGGSLRLSCAASGSTFYRYAMGWYRQAPGKEREFVAAISGSGGSTRYADSVKGRFTISRDNAKNSVFLQMNSLKPEDTAVYYCAARSRYGYSTFDYWGHGTQVTVSS | high polyreactivity |
| QVQLVESGGGLVQAGGSLRLSCAASGSTFYRYAMGWYRQAPGKERELVAAISTSGGRTYYADSVKGRFTISRDNAKNTVYLQMNSLKPEDTAVYYCAAPYQYGYWGQGTQVTVSS | high polyreactivity |
| QVQLVESGGGLVQAGGSLRLSCAASGSTFYRYAMGWYRQAPGKERELVAAITRGGGNTYYADSVKGRFTISRDNAKNTVYLQMNSLKPEDTAVYYCNTDPTLRSRVGIWGFDYWGQGTQVTVSS | high polyreactivity |
| QVQLVESGGGLVQAGGSLRLSCAASGSTFYRYAMGWYRQAPGKERELVAAITRTGGSTYADSVKGRFTISRDNAKNTVYLQMNSLKPEDTAVYYCAVQRYYVSSISPFYYWGQGTQVTVSS | low polyreactivity |
| QVQLVESGGGLVQAGGSLRLSCAASGSTFYRYAMGWYRQAPGKERELVAAITRTTARTYYADSVKGRFTISRDYAKNTVYLQMNSLKPEDTAVYYCAADLYSWTWSGFRQYDYWGQGTQVTVSS | high polyreactivity |
| QVQLVESGGGLVQAGGSLRLSCAASGSTFYRYAMGWYRQAPGKERELVARITWSAGRTYYADSVKGRFTISRDTAKNTVYLQMNSLKPEDTAVYYCAADSGGFASNKRMDYWGQGTQVTVSS | high polyreactivity |
| QVQLVESGGGLVQAGGSLRLSCAASGSTFYRYPMGWYRQAPGKERELVAGITGSGRRTYYADSVKGRFTISRDNAKNTVYFQMNSVKPEDTAVYYCNKRRASWSPAGGTYNYWGQGTQVTVSS | low polyreactivity |
| QVQLVESGGGLVQAGGSLRLSCAASGSTFYRYTMGWYRQAPGTERELVSAISRSGGSTYYADSVKGRFTISRDNAKNTVYLQMNSLKPEDTAVYYCATYGDFKSGYRYGYWGQGTQVTVSS | high polyreactivity |
| QVQLVESGGGLVQAGGSLRLSCAASGSTFYRYVMGWYRQAPGKERELVAAITWRGGTTYYADSVKGRFTISRDNAKNTVYLQMNRLNPEDTAVYYCNADRYLGVSEYKTYEYEYWGQGTQVTVSS | low polyreactivity |
| QVQLVESGGGLVQAGGSLRLSCAASGSTFYSNAMGWYRPAPGKERELVASITRGGSTNYADSVKGRFTISRDNAKNTVYLQMNSLKPEDTAVYYCNAERRYYFYRYDYWGQGTQVTVSS | high polyreactivity |
| QVQLVESGGGLVQAGGSLRLSCAASGSTFYSNAMGWYRQAPGKERELVAAISYSGGRTYYADSVKGRFTISRDNAKNTVFLQMNSLKPEDTAVYYCNKAYRRYIWHMDYWGQGTQVTVSS | high polyreactivity |
| QVQLVESGGGLVQAGGSLRLSCAASGSTFYSNAMGWYRQAPGKERELVASISWSSGSTYYADSVKGRFTISRDNAKNTVYLQMNSLKPDDTAVYYCATDAGGPYRFGYWGQGTQVTVSS | low polyreactivity |
| QVQLVESGGGLVQAGGSLRLSCAASGSTFYSYAMGWSRQAPGKERELVAAITRGGRTYYADSVKGRFTISRDNAKNTVYLQMNSLKPEDTAVYYCNVVTKFTGRGYDYWGQGTQVTVSS | high polyreactivity |
| QVQLVESGGGLVQAGGSLRLSCAASGSTFYSYAMGWYRQAPGKEREFVAAIRYSGGRTYADSVKGRFSISRDNAKNTVYLQMNSLKPEDTAVYYCAAVYYSYRWPYDYWGQGTQVTVSS | high polyreactivity |
| QVQLVESGGGLVQAGGSLRLSCAASGSTFYSYAMVWYRPARGPERELVAAITSGGRTYYADSVKGRFTISRDNAKNTVYLQMNCLKPEDTAVYYCSADLPVFGGYRSNRFGYWGQGTQVTVSS | high polyreactivity |
| QVQLVESGGGLVQAGGSLRLSCAASGSTFYSYGMGWYRPAPGKERELVAAITKRVGRTYYADSVKGRFTISRDNAKNTVYLQMNSLKPEDTAVYYCAARAWTRSVPYGFYYWGQGTQVTVSS | high polyreactivity |
| QVQLVESGGGLVQAGGSLRLSCAASGSTFYSYVIGWYRQAPGRESELVAVITSGGSTTYADSVNGRFTISRDNAKNTVYLEMNSLIPEDTAVYYCNAAYYNTDTQKVTFDYWGQGTQVTVSS | low polyreactivity |
| QVQLVESGGGLVQAGGSLRLSCAASGSTFYTNAMGWYRQAPGKERELVAAINRSGGRTYYADSVKGRFTISRDNAKNTVYLQMISLKPEDTAVYYCAARYPLRISTDTARDYYWGQGTQVTVSS | low polyreactivity |
| QVQLVESGGGLVQAGGSLRLSCAASGSTFYTNAMGWYRQAPGTERELVAAINYSGGSTYYADSVKGRFTISRDNAKNTVYLQMNSQTPEDTAVYYCATDLHWLVTKYGYWGQGTQVTVSS | low polyreactivity |
| QVQLVESGGGLVQAGGSLRLSCAASGSTFYTNVMGWYRQAPGKDRELVAAISYNSGSTSYADSVKGRFTISRDNAKNTVYLQMNSLKPEDTAVYYCAVRIRLRRARLSYDYWGQGTQVTVSS | high polyreactivity |
| QVQLVESGGGLVQAGGSLRLSCAASGSTFYTYAMGWYRQAPGKERELVAAITSSGTTNYADSVKGRFTISRDNAKNTVYLQMNSLKPEDTAVYYCAKRSYGGTLHYAFDSWGQGTQVTVSS | low polyreactivity |
